Measured values: publication doi:10.1101/2023.10.13.562161

Molecular target: VanX^C78/157S
Test: SEC

How did the stoichiometry N turn out when VanX^C78/157S (enzyme) was run?
The stoichiometry N was 2.
